Laboratory results published in PMC10786891, “Massively parallel profiling of RNA-targeting CRISPR-Cas13d”.

T1: EsCas13d, nuclease-dead (Eubacterium siraeum, UniProt B0MS50, R295A;H300A;R849A;H854A)
T1 sequence: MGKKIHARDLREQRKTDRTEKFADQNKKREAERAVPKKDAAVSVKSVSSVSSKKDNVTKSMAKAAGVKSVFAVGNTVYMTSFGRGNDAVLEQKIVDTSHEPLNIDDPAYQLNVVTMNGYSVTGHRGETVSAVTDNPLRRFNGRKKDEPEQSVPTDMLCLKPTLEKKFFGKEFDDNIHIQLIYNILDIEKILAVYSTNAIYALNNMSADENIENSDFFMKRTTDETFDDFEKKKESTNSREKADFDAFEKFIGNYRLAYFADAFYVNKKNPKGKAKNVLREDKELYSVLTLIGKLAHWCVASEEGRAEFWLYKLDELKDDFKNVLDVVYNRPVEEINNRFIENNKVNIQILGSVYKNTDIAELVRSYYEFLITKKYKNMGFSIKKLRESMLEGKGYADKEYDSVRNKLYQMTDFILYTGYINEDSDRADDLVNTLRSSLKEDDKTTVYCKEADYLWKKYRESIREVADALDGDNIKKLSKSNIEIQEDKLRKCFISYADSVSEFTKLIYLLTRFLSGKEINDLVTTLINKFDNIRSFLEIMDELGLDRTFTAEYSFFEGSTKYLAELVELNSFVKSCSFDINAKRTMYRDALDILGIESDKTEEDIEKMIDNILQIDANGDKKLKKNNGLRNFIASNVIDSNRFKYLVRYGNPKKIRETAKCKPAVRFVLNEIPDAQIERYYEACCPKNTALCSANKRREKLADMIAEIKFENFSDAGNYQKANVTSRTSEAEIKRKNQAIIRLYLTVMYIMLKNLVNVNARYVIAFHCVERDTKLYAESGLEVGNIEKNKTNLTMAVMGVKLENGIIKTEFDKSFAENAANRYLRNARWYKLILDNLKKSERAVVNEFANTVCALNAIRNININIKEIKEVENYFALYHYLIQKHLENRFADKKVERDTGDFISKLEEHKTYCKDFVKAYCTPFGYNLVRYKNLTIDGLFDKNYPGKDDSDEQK


Target: T1, EsCas13d, nuclease-dead
Experiment: crRNA (strand 1, pre-loaded); Mg2+; 40 mM Tris-HCl pH 7.5, 150 mM NaCl, 6 mM MgCl2, 1 mM DTT, 0.1% Tween-20, 0.2 mg/ml BSA; 25 C; 10 min per concentration, then washed
Conditions: tags: His6-TwinStrep-SUMO cleaved; N-terminal SNAP kept (SNAP-Surface 488); label: 3' end held by stalled T7 RNA polymerase

Binder	Kd [nM]
target 1 MT 5'PFS GAA 3'PFS UCC (mixed) RNA 1: CACCCGUGCAAAAAUGCAGGGGUCUAAAACUGAGCGGAUAACCUCUCUAUGG RNA 2: GGGAAUGGAUCCACAUCUACGAAUUCGAACCAUAGAGAGGUUAUCCGCUCAUCCAGAUCGGAAGAGCACACGU	27 ± 7
target 1 MT 5'PFS AAC 3'PFS ACU (mixed) RNA 1: CACCCGUGCAAAAAUGCAGGGGUCUAAAACUGAGCGGAUAACCUCUCUAUGG RNA 2: GGGAAUGGAUCCACAUCUACGAAUUCAACCCAUAGAGAGGUUAUCCGCUCAACUAGAUCGGAAGAGCACACGU	21 ± 7
target 1 MT 5'PFS AAA 3'PFS UUA (mixed) RNA 1: CACCCGUGCAAAAAUGCAGGGGUCUAAAACUGAGCGGAUAACCUCUCUAUGG RNA 2: GGGAAUGGAUCCACAUCUACGAAUUCAAACCAUAGAGAGGUUAUCCGCUCAUUAAGAUCGGAAGAGCACACGU	10.1 ± 1.45
target 1 MT 5'PFS UAG 3'PFS CCG (mixed) RNA 1: CACCCGUGCAAAAAUGCAGGGGUCUAAAACUGAGCGGAUAACCUCUCUAUGG RNA 2: GGGAAUGGAUCCACAUCUACGAAUUCUAGCCAUAGAGAGGUUAUCCGCUCACCGAGAUCGGAAGAGCACACGU	22 ± 5.15
target 1 MT 5'PFS ACC 3'PFS CAG (mixed) RNA 1: CACCCGUGCAAAAAUGCAGGGGUCUAAAACUGAGCGGAUAACCUCUCUAUGG RNA 2: GGGAAUGGAUCCACAUCUACGAAUUCACCCCAUAGAGAGGUUAUCCGCUCACAGAGAUCGGAAGAGCACACGU	~36
target 1 MT 5'PFS GCG 3'PFS UCG (mixed) RNA 1: CACCCGUGCAAAAAUGCAGGGGUCUAAAACUGAGCGGAUAACCUCUCUAUGG RNA 2: GGGAAUGGAUCCACAUCUACGAAUUCGCGCCAUAGAGAGGUUAUCCGCUCAUCGAGAUCGGAAGAGCACACGU	12.8 ± 2.6
target 1 insC 3' of 19,insG 3' of 9 (mixed) RNA 1: CACCCGUGCAAAAAUGCAGGGGUCUAAAACUGAGCGGAUAACCUCUCUAUGG RNA 2: GGGAAUGGAUCCACAUCUACGAAUUCGUACCAUCAGAGAGGUUAGUCCGCUCACCGAGAUCGGAAGAGCACACGU	44 ± 5
target 1 A1U,G12U (mixed) RNA 1: CACCCGUGCAAAAAUGCAGGGGUCUAAAACUGAGCGGAUAACCUCUCUAUGG RNA 2: GGGAAUGGAUCCACAUCUACGAAUUCGUACCAUAGAGAGUUUAUCCGCUCUCCGAGAUCGGAAGAGCACACGU	14.1 ± 1.8
target 1 MT 5'PFS GUU 3'PFS ACG (mixed) RNA 1: CACCCGUGCAAAAAUGCAGGGGUCUAAAACUGAGCGGAUAACCUCUCUAUGG RNA 2: GGGAAUGGAUCCACAUCUACGAAUUCGUUCCAUAGAGAGGUUAUCCGCUCAACGAGAUCGGAAGAGCACACGU	33 ± 6.5
target 1 MT 5'PFS UCA 3'PFS CCU (mixed) RNA 1: CACCCGUGCAAAAAUGCAGGGGUCUAAAACUGAGCGGAUAACCUCUCUAUGG RNA 2: GGGAAUGGAUCCACAUCUACGAAUUCUCACCAUAGAGAGGUUAUCCGCUCACCUAGAUCGGAAGAGCACACGU	27.5 ± 9.5
target 1 MT 5'PFS GUG 3'PFS AUA (mixed) RNA 1: CACCCGUGCAAAAAUGCAGGGGUCUAAAACUGAGCGGAUAACCUCUCUAUGG RNA 2: GGGAAUGGAUCCACAUCUACGAAUUCGUGCCAUAGAGAGGUUAUCCGCUCAAUAAGAUCGGAAGAGCACACGU	18.2 ± 1.25
target 1 MT 5'PFS UAU 3'PFS UAA (mixed) RNA 1: CACCCGUGCAAAAAUGCAGGGGUCUAAAACUGAGCGGAUAACCUCUCUAUGG RNA 2: GGGAAUGGAUCCACAUCUACGAAUUCUAUCCAUAGAGAGGUUAUCCGCUCAUAAAGAUCGGAAGAGCACACGU	34 ± 11
target 1 insA 3' of 22,insU 3' of 4 (mixed) RNA 1: CACCCGUGCAAAAAUGCAGGGGUCUAAAACUGAGCGGAUAACCUCUCUAUGG RNA 2: GGGAAUGGAUCCACAUCUACGAAUUCGUACACAUAGAGAGGUUAUCCGCUUCACCGAGAUCGGAAGAGCACACGU	11.3 ± 0.7
target 1 MT 5'PFS UAG 3'PFS CCC (mixed) RNA 1: CACCCGUGCAAAAAUGCAGGGGUCUAAAACUGAGCGGAUAACCUCUCUAUGG RNA 2: GGGAAUGGAUCCACAUCUACGAAUUCUAGCCAUAGAGAGGUUAUCCGCUCACCCAGAUCGGAAGAGCACACGU	~56
target 1 MT 5'PFS GCA 3'PFS UCC (mixed) RNA 1: CACCCGUGCAAAAAUGCAGGGGUCUAAAACUGAGCGGAUAACCUCUCUAUGG RNA 2: GGGAAUGGAUCCACAUCUACGAAUUCGCACCAUAGAGAGGUUAUCCGCUCAUCCAGAUCGGAAGAGCACACGU	13.7 ± 5.95
target 1 MT 5'PFS GUG 3'PFS AUG (mixed) RNA 1: CACCCGUGCAAAAAUGCAGGGGUCUAAAACUGAGCGGAUAACCUCUCUAUGG RNA 2: GGGAAUGGAUCCACAUCUACGAAUUCGUGCCAUAGAGAGGUUAUCCGCUCAAUGAGAUCGGAAGAGCACACGU	16.2 ± 1
target 1 MT 5'PFS CUA 3'PFS CAG (mixed) RNA 1: CACCCGUGCAAAAAUGCAGGGGUCUAAAACUGAGCGGAUAACCUCUCUAUGG RNA 2: GGGAAUGGAUCCACAUCUACGAAUUCCUACCAUAGAGAGGUUAUCCGCUCACAGAGAUCGGAAGAGCACACGU	~9.5
target 1 MT 5'PFS AAA 3'PFS UUG (mixed) RNA 1: CACCCGUGCAAAAAUGCAGGGGUCUAAAACUGAGCGGAUAACCUCUCUAUGG RNA 2: GGGAAUGGAUCCACAUCUACGAAUUCAAACCAUAGAGAGGUUAUCCGCUCAUUGAGAUCGGAAGAGCACACGU	11.7 ± 1.55
target 1 MT 5'PFS GCG 3'PFS UCA (mixed) RNA 1: CACCCGUGCAAAAAUGCAGGGGUCUAAAACUGAGCGGAUAACCUCUCUAUGG RNA 2: GGGAAUGGAUCCACAUCUACGAAUUCGCGCCAUAGAGAGGUUAUCCGCUCAUCAAGAUCGGAAGAGCACACGU	17.7 ± 4.45
target 1 MT 5'PFS UGU 3'PFS CUU (mixed) RNA 1: CACCCGUGCAAAAAUGCAGGGGUCUAAAACUGAGCGGAUAACCUCUCUAUGG RNA 2: GGGAAUGGAUCCACAUCUACGAAUUCUGUCCAUAGAGAGGUUAUCCGCUCACUUAGAUCGGAAGAGCACACGU	28.9 ± 7.65
target 1 MT 5'PFS GUG 3'PFS AUU (mixed) RNA 1: CACCCGUGCAAAAAUGCAGGGGUCUAAAACUGAGCGGAUAACCUCUCUAUGG RNA 2: GGGAAUGGAUCCACAUCUACGAAUUCGUGCCAUAGAGAGGUUAUCCGCUCAAUUAGAUCGGAAGAGCACACGU	15.8 ± 1.4
target 1 MT 5'PFS AAC 3'PFS ACA (mixed) RNA 1: CACCCGUGCAAAAAUGCAGGGGUCUAAAACUGAGCGGAUAACCUCUCUAUGG RNA 2: GGGAAUGGAUCCACAUCUACGAAUUCAACCCAUAGAGAGGUUAUCCGCUCAACAAGAUCGGAAGAGCACACGU	80 ± 34.5
target 1 MT 5'PFS GUU 3'PFS ACA (mixed) RNA 1: CACCCGUGCAAAAAUGCAGGGGUCUAAAACUGAGCGGAUAACCUCUCUAUGG RNA 2: GGGAAUGGAUCCACAUCUACGAAUUCGUUCCAUAGAGAGGUUAUCCGCUCAACAAGAUCGGAAGAGCACACGU	26.5 ± 9.5
target 1 MT 5'PFS UGU 3'PFS CUA (mixed) RNA 1: CACCCGUGCAAAAAUGCAGGGGUCUAAAACUGAGCGGAUAACCUCUCUAUGG RNA 2: GGGAAUGGAUCCACAUCUACGAAUUCUGUCCAUAGAGAGGUUAUCCGCUCACUAAGAUCGGAAGAGCACACGU	49 ± 19
target 1 MT 5'PFS CUC 3'PFS ACG (mixed) RNA 1: CACCCGUGCAAAAAUGCAGGGGUCUAAAACUGAGCGGAUAACCUCUCUAUGG RNA 2: GGGAAUGGAUCCACAUCUACGAAUUCCUCCCAUAGAGAGGUUAUCCGCUCAACGAGAUCGGAAGAGCACACGU	72 ± 33
target 1 MT 5'PFS GCG 3'PFS UCC (mixed) RNA 1: CACCCGUGCAAAAAUGCAGGGGUCUAAAACUGAGCGGAUAACCUCUCUAUGG RNA 2: GGGAAUGGAUCCACAUCUACGAAUUCGCGCCAUAGAGAGGUUAUCCGCUCAUCCAGAUCGGAAGAGCACACGU	19 ± 4
target 1 MT 5'PFS GUG 3'PFS AUC (mixed) RNA 1: CACCCGUGCAAAAAUGCAGGGGUCUAAAACUGAGCGGAUAACCUCUCUAUGG RNA 2: GGGAAUGGAUCCACAUCUACGAAUUCGUGCCAUAGAGAGGUUAUCCGCUCAAUCAGAUCGGAAGAGCACACGU	19.9 ± 2.4
target 1 MT 5'PFS GAA 3'PFS UCG (mixed) RNA 1: CACCCGUGCAAAAAUGCAGGGGUCUAAAACUGAGCGGAUAACCUCUCUAUGG RNA 2: GGGAAUGGAUCCACAUCUACGAAUUCGAACCAUAGAGAGGUUAUCCGCUCAUCGAGAUCGGAAGAGCACACGU	39.5 ± 18
